{"source": "paper PMC6442461", "about": "(2020)", "binders": {"B1": {"name": "plastocyanin (protein)", "chain": "ETYTVKLGSDKGLLVFEPAKLTIKPGDTVEFLNNKVPPHNVVFDAALNPAKSADLAKSLSHKQLLMSPGQSTSTTFPADAPAGEYTFYCEPHRGAGMVGKITVAG"}}, "molecular_target": "T1, cytochrome f soluble domain lacking the transmembrane helix (Nostoc sp. PCC 7119, UniProt Q93SW9)", "T1 chain": "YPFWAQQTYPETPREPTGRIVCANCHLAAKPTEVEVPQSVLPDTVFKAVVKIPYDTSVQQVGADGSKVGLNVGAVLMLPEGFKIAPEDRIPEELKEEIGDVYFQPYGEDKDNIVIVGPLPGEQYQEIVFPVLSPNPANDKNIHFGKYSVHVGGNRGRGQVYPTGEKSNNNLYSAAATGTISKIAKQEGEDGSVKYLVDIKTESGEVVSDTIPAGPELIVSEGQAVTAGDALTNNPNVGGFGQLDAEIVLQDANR", "experiment": "fluorescence titration", "data": [{"binder": "B1", "values": [{"measurement": "Kd", "value": 70, "unit": "µM"}]}]}
